Test results: patent publication US20190389951A1 (Regeneron, published 2019)

Experiments:
[1] = biological target: T1, hCD28.mmh (hCD28 ecto (N19-P152).mmh) (human); test: SPR (Biacore), captured antibody, soluble hCD28 injected, 37 C
T1 construct: also called REGN2011

[2] = biological target: T2, 6h.hPSMA (recombinant Human PSMA/FOLH1 Protein, R&D, Catalog #4234-ZN) (human, UniProt Q04609 44-750); test: SPR (Biacore T-200), antibody captured on anti-human Fc, 6h.hPSMA injected, 25 C
T2 construct: Bought protein; also called hPSMA.6H; hPSMA with an N-terminal polyhistidine tag; not shown: N-terminal polyhistidine (6-His) tag
T2 sequence (Q04609 44-750 limits assumed): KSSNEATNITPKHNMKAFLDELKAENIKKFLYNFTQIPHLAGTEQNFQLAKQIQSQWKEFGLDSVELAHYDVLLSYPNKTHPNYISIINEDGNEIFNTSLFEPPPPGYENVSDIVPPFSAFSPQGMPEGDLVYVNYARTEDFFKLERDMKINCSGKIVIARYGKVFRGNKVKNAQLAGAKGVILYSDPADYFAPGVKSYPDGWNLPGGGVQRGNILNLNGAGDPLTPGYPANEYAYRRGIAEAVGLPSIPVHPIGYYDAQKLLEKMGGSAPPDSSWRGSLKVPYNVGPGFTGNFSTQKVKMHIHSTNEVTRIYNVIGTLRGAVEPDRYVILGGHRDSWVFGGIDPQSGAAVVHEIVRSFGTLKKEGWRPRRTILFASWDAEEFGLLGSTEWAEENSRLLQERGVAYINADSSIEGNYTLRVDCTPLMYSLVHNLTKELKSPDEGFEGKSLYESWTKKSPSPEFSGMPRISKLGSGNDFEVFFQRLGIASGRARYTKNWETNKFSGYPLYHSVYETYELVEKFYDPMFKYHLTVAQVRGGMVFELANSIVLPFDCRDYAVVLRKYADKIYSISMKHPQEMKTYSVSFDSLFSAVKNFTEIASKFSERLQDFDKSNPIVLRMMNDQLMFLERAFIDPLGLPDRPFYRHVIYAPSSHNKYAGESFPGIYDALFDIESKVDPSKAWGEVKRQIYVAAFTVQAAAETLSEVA

[3] = biological target: T3, human CD28 on cells (HEK293/hCD28 cells, human T cells, engineered reporter T-cells) (human, UniProt P10747 19-220); test: electrochemiluminescence cell binding (MSD), HEK293-hCD28 cells
T3 construct: primary human T cells carry it naturally

[4] = biological target: T3, human CD28 on cells (HEK293/hCD28 …); test: flow cytometry, human CD2+ T cells
[5] = biological target: T3, human CD28 on cells (HEK293/hCD28 …); test: flow cytometry, human CD4+ T cells
[6] = biological target: T4, human PSMA on cells (C4-2, 22RV1, HEK293/hCD20/hPSMA) (human, UniProt Q04609 1-750); test: flow cytometry, C4-2 cells
T4 construct: C4-2 and 22RV1 express PSMA endogenously; also called FOLH1
T4 sequence (Q04609 whole entry): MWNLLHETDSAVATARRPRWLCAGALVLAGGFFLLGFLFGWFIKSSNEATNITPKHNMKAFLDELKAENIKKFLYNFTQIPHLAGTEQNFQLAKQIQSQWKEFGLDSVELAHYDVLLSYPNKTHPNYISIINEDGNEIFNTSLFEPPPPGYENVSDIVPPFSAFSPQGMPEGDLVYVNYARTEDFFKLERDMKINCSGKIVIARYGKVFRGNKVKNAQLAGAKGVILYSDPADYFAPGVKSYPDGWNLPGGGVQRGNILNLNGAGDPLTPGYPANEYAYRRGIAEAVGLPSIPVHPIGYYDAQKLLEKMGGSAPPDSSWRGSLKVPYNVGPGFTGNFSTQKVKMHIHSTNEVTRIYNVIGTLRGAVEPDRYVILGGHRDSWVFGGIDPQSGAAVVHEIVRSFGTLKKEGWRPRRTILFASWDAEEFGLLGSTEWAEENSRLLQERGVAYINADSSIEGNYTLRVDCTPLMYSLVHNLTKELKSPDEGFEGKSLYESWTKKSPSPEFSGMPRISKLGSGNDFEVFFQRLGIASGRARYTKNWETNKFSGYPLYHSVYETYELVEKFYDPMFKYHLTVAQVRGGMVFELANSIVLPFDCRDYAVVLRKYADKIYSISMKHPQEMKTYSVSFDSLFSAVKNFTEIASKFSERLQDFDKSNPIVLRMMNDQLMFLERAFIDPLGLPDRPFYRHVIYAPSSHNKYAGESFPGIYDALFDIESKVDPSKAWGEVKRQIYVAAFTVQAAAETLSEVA

[7] = biological target: T3, human CD28 on cells (HEK293/hCD28 …); test: cell-based or functional assay
[8] = biological target: T4, human PSMA on cells (C4-2, 22RV1, …); test: electrochemiluminescence cell binding (MSD), C4-2 cells
[9] = biological target: T1, hCD28.mmh (hCD28 ecto (N19-P152).mmh); test: SPR (Biacore T-200), antibody captured on anti-human Fc, hCD28.mmh injected, 25 C
[10] = biological target: T2, 6h.hPSMA (recombinant Human PSMA/FOLH1 …); test: SPR (Biacore), captured antibody, 20 nM hPSMA.6H row, 37 C
[11] = biological target: T4, human PSMA on cells (C4-2, 22RV1, …); test: flow cytometry, 22RV1 cells
[12] = biological target: T3, human CD28 on cells (HEK293/hCD28 …); test: cell-based or functional assay; remark: listed apart in the source
[13] = biological target: T3, human CD28 on cells (HEK293/hCD28 …); test: flow cytometry, human CD8+ T cells
[14] = biological target: T2, 6h.hPSMA (recombinant Human PSMA/FOLH1 …); test: SPR (Biacore), captured antibody, 10 nM hPSMA.6H row, 37 C
[15] = biological target: T4, human PSMA on cells (C4-2, 22RV1, …); test: flow cytometry (FACS binding), MFI_APC against antibody concentration; the sheet does not name the cells; legend paragraph 55: cancer cell lines with endogenous PSMA; unit taken from the axis Log10 (M)
[16] = biological target: T4, human PSMA on cells (C4-2, 22RV1, …); test: electrochemiluminescence cell binding (MSD), supplemental experiment, C4-2 P-7 cells
[17] = biological target: T3, human CD28 on cells (HEK293/hCD28 …); test: cell-based or functional assay; remark: listed apart in the source
[18] = biological target: T3, human CD28 on cells (HEK293/hCD28 …); test: electrochemiluminescence cell binding (MSD)
[19] = biological target: T4, human PSMA on cells (C4-2, 22RV1, …); test: electrochemiluminescence cell binding (MSD)
[20] = biological target: T4, human PSMA on cells (C4-2, 22RV1, …); test: electrochemiluminescence cell binding (MSD), C4-2 cells; concentrations above 11.1 nM excluded

B1: bs16429D (bispecific antibody, human IgG4 S228P, kappa)
heavy 1: QVQLQESGPGLVKPSETLSLTCTVSGGSISSYYWSWIRQPPGKGLEWIGYIYYSGITHYNPSLKSRVTISVDTSKIQFSLKLSSVTAADTAVYYCARWGVRRDYYYYGMDVWGQGTTVTVSSASTKGPSVFPLAPCSRSTSESTAALGCLVKDYFPEPVTVSWNSGALTSGVHTFPAVLQSSGLYSLSSVVTVPSSSLGTKTYTCNVDHKPSNTKVDKRVESKYGPPCPPCPAPPVAGPSVFLFPPKPKDTLMISRTPEVTCVVVDVSQEDPEVQFNWYVDGVEVHNAKTKPREEQFNSTYRVVSVLTVLHQDWLNGKEYKCKVSNKGLPSSIEKTISKAKGQPREPQVYTLPPSQEEMTKNQVSLTCLVKGFYPSDIAVEWESNGQPENNYKTTPPVLDSDGSFFLYSRLTVDKSRWQEGNVFSCSVMHEALHNRFTQKSLSLSPGK
heavy 2: QVQLVESGGGVVQPGRSLRLSCAASGFTFSSYGMHWVRQAPGKGLEWVAFMSYDGSNKFYSDSVKGRFTISRDNSRKMLFLQMNNLRAEDTAVYYCARDQYYDFLTDHGVFDYWGQGTLVTVSSASTKGPSVFPLAPCSRSTSESTAALGCLVKDYFPEPVTVSWNSGALTSGVHTFPAVLQSSGLYSLSSVVTVPSSSLGTKTYTCNVDHKPSNTKVDKRVESKYGPPCPPCPAPPVAGPSVFLFPPKPKDTLMISRTPEVTCVVVDVSQEDPEVQFNWYVDGVEVHNAKTKPREEQFNSTYRVVSVLTVLHQDWLNGKEYKCKVSNKGLPSSIEKTISKAKGQPREPQVYTLPPSQEEMTKNQVSLTCLVKGFYPSDIAVEWESNGQPENNYKTTPPVLDSDGSFFLYSRLTVDKSRWQEGNVFSCSVMHEALHNHYTQKSLSLSLGK
light: not shown
notes: also called anti-PSMA×CD28 bispecific antibody; PSMA × CD28 monoclonal antibody
- Kd [1]: 272 nM
- t½ (dissociative half-life) [1]: 1.7 min
- Kd [2]: 0.251 nM
- T½ (dissociative half-life) [2]: 235 min
- EC50 [3]: 9.58 nM
- EC50 [4]: 48 nM
- EC50 [5]: 50.9 nM
- EC50 [6]: 3.87 nM
- IL-2 production EC50, primary CD4+ T-cells + HEK293/hCD20/hPSMA, 50 pM anti-CD3×CD20 [7]: 2.7e-10 M
- EC50 [8]: 0.853 nM
- Kd [9]: 144 nM
- T½ (dissociative half-life) [9]: 3.5 min
- Kd [10]: 0.217 nM
- t½ (dissociative half-life) [10]: 182 min
- EC50 [11]: 3.05 nM
- NFκB-luciferase EC50, reporter T-cells + HEK293/hCD20/hPSMA, 50 pM anti-CD3×CD20 [12]: 1.72e-10 M
- EC50 [13]: 58.9 nM
- Kd [14]: 0.396 nM
- t½ (dissociative half-life) [14]: 146 min
- EC50 [15]: 9.34 nM

B2: mAb14216P2 (antibody, V domains shown)
VH: EVQLVESGGGLVQPGGSLRLSCAASGFTFSRNNMHWVRQAPGKGLEYVSGISSNGGRTYYADSVKGRFTISRDNSKNTLYLQMGGLRAADMAVYFCTRDDELLSFDYWGQGTLVTVSS
VL: not shown
notes: Bivalent parental anti-CD28 antibody; also called anti-CD28 monoclonal antibody
- binding result [2]: no binding (tested: 10 nM)
- binding result [8]: no binding (tested: ratio to HEK293HZ less than 3 at 11.1 nM)
- T½ (dissociative half-life) [9]: 8.2 min

B3: mAb14226P2 (antibody, V domains shown)
VH: QVQLQESGPGLVKPSETLSLTCTVSGGSISSYYWSWIRQPPGKGLEWIGYIYYSGITHYNPSLKSRVTISVDTSKIQFSLKLSSVTAADTAVYYCARWGVRRDYYYYGMDVWGQGTTVTVSS
VL: not shown
notes: as for B2
- binding result [2]: no binding (tested: 10 nM)
- IL-2 production EC50, primary CD4+ T-cells + HEK293/hCD20, 50 pM anti-CD3×CD20 [7]: 6.05e-09 M
- IL-2 production EC50, primary CD4+ T-cells + HEK293/hCD20/hPSMA, 50 pM anti-CD3×CD20 [7]: 8.69e-09 M
- binding result [16]: no binding
- T½ (dissociative half-life) [9]: 3.5 min
- NFκB-luciferase EC50, reporter T-cells + HEK293/hCD20, 50 pM anti-CD3×CD20 [12]: 3.59e-09 M
- NFκB-luciferase EC50, reporter T-cells + HEK293/hCD20/hPSMA, 50 pM anti-CD3×CD20 [12]: 3.27e-09 M
- NFκB-luciferase EC50, reporter T-cells + HEK293/hCD20, 50 pM hIgG4 isotype control (no TCR stimulation) [17]: 5.11e-09 M
- NFκB-luciferase EC50, reporter T-cells + HEK293/hCD20/hPSMA, 50 pM hIgG4 isotype control (no TCR stimulation) [17]: 4.9e-09 M

B4: bs16430D (bispecific antibody, V domains shown)
VH 1: EVQLVESGGGLVQPGGSLRLSCAASGFTFSTYAMTWVRQAPGKGLEWVSFISGSGDNTYYADSVKGRFTISRDNSKNTLYLQMNSLRADDSAIYHCAKDSGYCSSGGCSLYFYYGMDVWGQGTTVTVSS
VH 2: QVQLVESGGGVVQPGRSLRLSCAASGFTFSSYGMHWVRQAPGKGLEWVAVISYAGNNKYYADSVKGRFTVSRDNSKKTLYLQMNSLRSEDTAVYYCAKDSYYDFLTDPDVLDIWGQGTMVTVSS
VL: not shown
notes: two distinct heavy chains with a common light chain; also called anti-PSMA×CD28 bispecific antibody; PSMA × CD28 monoclonal antibody
- EC50 [3]: 8.47 nM
- ratio of binding signal (RLU) HEK293-hCD28/HEK293HZ at 11.1 nM [18]: 41 fold
- ratio of binding signal (RLU) C4-2/HEK293HZ at 11.1 nM [19]: 10 fold
- IL-2 production EC50, primary CD4+ T-cells + HEK293/hCD20/hPSMA, 50 pM anti-CD3×CD20 [7]: 1.5e-10 M
- IL-2 production fold induction, primary CD4+ T-cells + HEK293/hCD20, 50 pM anti-CD3×CD20 [7]: 1 fold
- IL-2 production fold induction, primary CD4+ T-cells + HEK293/hCD20/hPSMA, 50 pM anti-CD3×CD20 [7]: 165 fold
- EC50 [8]: 5.24 nM
- NFκB-luciferase EC50, reporter T-cells + HEK293/hCD20/hPSMA, 50 pM anti-CD3×CD20 [12]: 4.57e-10 M
- NFκB-luciferase fold induction, reporter T-cells + HEK293/hCD20, 50 pM anti-CD3×CD20 [12]: 0.92 fold
- NFκB-luciferase fold induction, reporter T-cells + HEK293/hCD20/hPSMA, 50 pM anti-CD3×CD20 [12]: 13.6 fold
- NFκB-luciferase fold induction, reporter T-cells + HEK293/hCD20, 50 pM hIgG4 isotype control (no TCR stimulation) [17]: 0.87 fold
- NFκB-luciferase fold induction, reporter T-cells + HEK293/hCD20/hPSMA, 50 pM hIgG4 isotype control (no TCR stimulation) [17]: 0.89 fold

B5: bs16431D (bispecific antibody, V domains shown)
VH 1: QVQLVESGGGVVQPGRSLRLSCAASGFTFSSYGMHWVRQAPGKGLEWVAVISYAGNNKYYADSVKGRFTVSRDNSKKTLYLQMNSLRSEDTAVYYCAKDSYYDFLTDPDVLDIWGQGTMVTVSS
VH 2: EVQLVESGGGLVQPGGSLRLSCAASGFTFSRNNMHWVRQAPGKGLEYVSGISSNGGRTYYADSVKGRFTISRDNSKNTLYLQMGGLRAADMAVYFCTRDDELLSFDYWGQGTLVTVSS
VL: not shown
notes: as for B4
- Kd [2]: 0.137 nM
- T½ (dissociative half-life) [2]: 300 min
- EC50 [3]: 5.31 nM
- EC50 [4]: 180 nM
- EC50 [5]: 167 nM
- EC50 [6]: 1.5 nM
- IL-2 production EC50, primary CD4+ T-cells + HEK293/hCD20/hPSMA, 50 pM anti-CD3×CD20 [7]: 2.2e-10 M
- EC50 [20]: 0.35 nM
- Kd [9]: 207 nM
- T½ (dissociative half-life) [9]: 8.2 min
- EC50 [11]: 6.33 nM
- NFκB-luciferase EC50, reporter T-cells + HEK293/hCD20/hPSMA, 50 pM anti-CD3×CD20 [12]: 2.78e-10 M
- EC50 [13]: 180 nM

B6: mAb11838P2 (antibody, V domains shown)
VH: QVQLVESGGGVVQPGRSLRLSCAASGFTFSSYGMHWVRQAPGKGLEWVAFMSYDGSNKFYSDSVKGRFTISRDNSRKMLFLQMNNLRAEDTAVYYCARDQYYDFLTDHGVFDYWGQGTLVTVSS
VL: not shown
notes: Bivalent parental anti-PSMA antibody; also called anti-PSMA monoclonal antibody; mAb11838P2 (PSMA)
- binding result [3]: no binding (tested: ratio to HEK293HZ less than 3 at 11.1 nM)
- ratio of binding signal (RLU) HEK293-hCD28/HEK293HZ at 11.1 nM [18]: < 1 fold
- ratio of binding signal (RLU) C4-2/HEK293HZ at 11.1 nM [19]: 4 fold
- EC50 [20]: 0.738 nM
